Test results published in paper doi:10.1101/2021.02.17.431492 (bioRxiv, 2021).

Molecular target: monomeric SARS-CoV-2 receptor binding domain (RBD) (SARS-CoV-2, UniProt P0DTC2)
Assay: ELISA

B1: DH1041 (ACE2 binding site-targeting RBD neutralizing antibody) (antibody, V domains shown)
VH: EVQLVESGGGLVQPGGSLRLSCAASGVTFSSYWMSWVRQAPGKGLEWVANIRQDGSEKYSVDSVKGRFTISRDNAKNSLYLQMNSLRAEDTAVYYCARARRADNSGYYGFHFDCWGQGTLVTVSS
VL: QSVLTQPPSVSGAPGQRVTISCTGSSSNIGAGYDVHWYQQLPGTAPKLLIYGNNNRPSGVPDRFSDSKSGTSASLAITRLQAEDEADYYCQSYDSSLSGWVFGGGTKLTVL
  binding result: binds
